Experimental data reported in patent US20040043959A1, “Combination therapies for treating methylthioadenosine phosphorylase deficient cells” (priority 2002, published 2004).

Experiments:
Assay in all cases: MTAP substrate assay, coupled spectrophotometric (adenine, xanthine oxidase)
Assay type in all cases: biochemical, human
Conditions in all cases: other: substrate of MTAP, 37° C.
[1] = substrate: CCCCSC[C@H]1O[C@@H](n2cnc3c(N)ncnc32)[C@H](O)[C@@H]1O
Experimental: (§1) An enzymatic assay to determine the activity of MTAP against a given substrate was performed. Human MTAP containing an N-terminal six-histidine tag was expressed in E. coli BL21 DE3 cells. The protein was purified to homogeneity by Ni2+ affinity chromatography. Enzymatic activity was measured using a coupled spectrophotometric assay designed to monitor the reaction product adenine (Savarese, T. M., Crabtree, G. W., and Parks, R. E. Jr., (1980) Biochem. Pharmacol. 30, 189-199). Various concentrations of the indicated 5′-deoxymethylthio adenosine (MTA) or substrate were incubated in assay buffer (40 mM potassium phosphate buffer, 1 mM, and DTT 0.8 units/ml xanthine oxidase coupling enzyme) for 5 minutes at 37° C. The reaction was initiated by the addition of MTAP. The exact concentration of enzyme used varied for each substrate tested and ranged from 2 nM to 500 nM. Activity as a function of enzyme concentration was determined for each substrate tested to ensure that the appropriate enzyme concentration was used. Activity was detected by continuous monitoring of absorbance at 305 nm for 10 minutes (ΔE=15,500 M^−1).
(§2) Library compounds (10 and 50 uM) were tested using the assay described above with 2 nM MTAP enzyme. The resultant initial velocities are reported as a percentage of the initial velocity observed when MTA is the substrate. MTA controls, 10 and 50 uM concentrations, were run on each plate alongside the library compounds.

[2] = substrate: CCSC[C@H]1O[C@@H](n2cnc3c(N)ncnc32)[C@H](O)[C@@H]1O
Experimental: as §1, §2

[3] = substrate: CSC[C@H]1O[C@@H](n2cnc3c(N)ncnc32)C[C@@H]1O
Experimental: as §1, §2

[4] = substrate: CSC[C@H]1O[C@@H](n2cnc3c(N)ncnc32)[C@H](N=[N+]=[N-])[C@@H]1O
Experimental: as §1, §2

[5] = substrate: C[C@H]1O[C@@H](n2cnc3c(N)ncnc32)[C@H](O)[C@@H]1O
Experimental: as §1, §2

[6] = substrate: Cc1ccccc1CSC[C@H]1O[C@@H](n2cnc3c(N)ncnc32)[C@H](O)[C@@H]1O
Experimental: as §1, §2

[7] = substrate: Nc1ncnc2c1ncn2[C@@H]1O[C@H](CNCCO)[C@@H](O)[C@H]1O
Experimental: as §1, §2

[8] = substrate: Nc1ncnc2c1ncn2[C@@H]1O[C@H](CNCc2ccc(F)cc2)[C@@H](O)[C@H]1O
Experimental: as §1, §2

[9] = substrate: Nc1ncnc2c1ncn2[C@@H]1O[C@H](CNc2ccccc2)[C@@H](O)[C@H]1O
Experimental: as §1, §2

[10] = substrate: Nc1ncnc2c1ncn2[C@@H]1O[C@H](CSC2CCCC2)[C@@H](O)[C@H]1O
Experimental: as §1, §2

[11] = substrate: Nc1ncnc2c1ncn2[C@@H]1O[C@H](CSC2CCCCC2)[C@@H](O)[C@H]1O
Experimental: as §1, §2

[12] = substrate: Nc1ncnc2c1ncn2[C@@H]1O[C@H](CSCCCc2ccccc2)[C@@H](O)[C@H]1O
Experimental: as §1, §2

[13] = substrate: Nc1ncnc2c1ncn2[C@@H]1O[C@H](CSCCO)[C@@H](O)[C@H]1O
Experimental: as §1, §2

[14] = substrate: Nc1ncnc2c1ncn2[C@@H]1O[C@H](CSCCc2ccccc2)[C@@H](O)[C@H]1O
Experimental: as §1, §2

[15] = substrate: Nc1ncnc2c1ncn2[C@@H]1O[C@H](CSCc2ccc(F)cc2)[C@@H](O)[C@H]1O
Experimental: as §1, §2

[16] = substrate: Nc1ncnc2c1ncn2[C@@H]1O[C@H](CSCc2ccco2)[C@@H](O)[C@H]1O
Experimental: as §1, §2

[17] = substrate: Nc1ncnc2c1ncn2[C@@H]1O[C@H](CSc2ccc(C(F)(F)F)cc2)[C@@H](O)[C@H]1O
Experimental: as §1, §2

[18] = substrate: Nc1ncnc2c1ncn2[C@@H]1O[C@H](CSc2ccc3ccccc3n2)[C@@H](O)[C@H]1O
Experimental: as §1, §2

[19] = substrate: Nc1ncnc2c1ncn2[C@@H]1O[C@H](CSc2nccs2)[C@@H](O)[C@H]1O
Experimental: as §1, §2

B1: Human MTAP (Homo sapiens) (protein)
chain: MASGTTTTAVKIGIIGGTGLDDPEILEGRTEKYVDTPFGKPSDALILGKIKNVDCVLLARHGRQHTIMPSKVNYQANIWALKEEGCTHVIVTTACGSLREEIQPGDIVIIDQFIDRTTMRPQSFYDGSHSCARGVCHIPMAEPFCPKTREVLIETAKKLGLRCHSKGTMVTIEGPRFSSRAESFMFRTWGADVINMTTVPEVVLAKEAGICYASIAMATDYDCWKEHEEAVSVDRVLKTLKENANKAKSLLLTTIPQIGSTEWSETLHNLKNMAQFSVLLPRH
notes: six-histidine tag (His6) (N); made in house; host or cells: E. coli BL21 DE3
Q: Which Km [1] does the source give for B1 here?
A: Its Km is 3.3 µM.

Q: What about the kcat [1] of the same protein?
A: Its kcat is 5.4 s⁻¹.

Q: What about the Km [2] of the same protein?
A: Its Km is 1.8 µM.

Q: And the kcat [2]?
A: The kcat was 2.9 s⁻¹.

Q: What about the Km [3] of the same protein?
A: Its Km is 3.3 µM.

Q: And the kcat [3]?
A: Its kcat is 0.76 s⁻¹.

Q: And the Km [4]?
A: The Km was 3600 µM.

Q: And the kcat [4]?
A: The kcat was 0.04 s⁻¹.

Q: And the Km [5]?
A: The Km was 6 µM.

Q: What about the kcat [5] of the same protein?
A: The kcat was 4.8 s⁻¹.

Q: What about the Km [6] of the same protein?
A: The Km was 10 µM.

Q: And the kcat [6]?
A: The kcat was 0.79 s⁻¹.

Q: What about the Km [7] of the same protein?
A: The Km was 758 µM.

Q: What about the kcat [7] of the same protein?
A: Its kcat is 0.029 s⁻¹.

Q: What about the Km [8] of the same protein?
A: The Km was 145 µM.

Q: And the kcat [8]?
A: The kcat was 0.089 s⁻¹.

Q: What about the Km [9] of the same protein?
A: Its Km is 8.5 µM.

Q: What about the kcat [9] of the same protein?
A: The kcat was 2.02 s⁻¹.

Q: What about the Km [10] of the same protein?
A: The Km was 3.2 µM.

Q: What about the kcat [10] of the same protein?
A: The kcat was 1.5 s⁻¹.

Q: And the Km [11]?
A: The Km was 3.5 µM.

Q: What about the kcat [11] of the same protein?
A: Its kcat is 1.57 s⁻¹.

Q: What about the Km [12] of the same protein?
A: The Km was 2.8 µM.

Q: What about the kcat [12] of the same protein?
A: The kcat was 2.16 s⁻¹.

Q: What about the Km [13] of the same protein?
A: Its Km is 25 µM.

Q: What about the kcat [13] of the same protein?
A: The kcat was 1.46 s⁻¹.

Q: And the Km [14]?
A: The Km was 5 µM.

Q: What about the kcat [14] of the same protein?
A: Its kcat is 2.14 s⁻¹.

Q: And the Km [15]?
A: Its Km is 5.4 µM.

Q: What about the kcat [15] of the same protein?
A: Its kcat is 2.24 s⁻¹.

Q: What about the Km [16] of the same protein?
A: Its Km is 4.45 µM.

Q: What about the kcat [16] of the same protein?
A: Its kcat is 6.15 s⁻¹.

Q: What about the Km [17] of the same protein?
A: Its Km is 1.7 µM.

Q: What about the kcat [17] of the same protein?
A: The kcat was 0.29 s⁻¹.

Q: What about the Km [18] of the same protein?
A: Its Km is 6.9 µM.

Q: What about the kcat [18] of the same protein?
A: Its kcat is 3.16 s⁻¹.

Q: And the Km [19]?
A: Its Km is 3.4 µM.

Q: And the kcat [19]?
A: Its kcat is 2.49 s⁻¹.
